Assay results taken from the DeepSol protein solubility set.

Assay: soluble on expression in E. coli; label from the status in PepcDB or PDB records

| Sequence | soluble on expression in E. coli |
| --- | --- |
| MSLNLNLIFKEQTLKFNKEEQETYLFLQQHNSDWANIFKEMILQGRDKVTQRLVTSMHRENLVKARTQSKKILSRDLIMLDISTTHILEIQFPQAKQTLYAPITGEHAFDRIDVEGPFYIKDDITNTITRVHHPNEILECILIEAPDLKNAASDQFQQDLINSATNMTFAISYQALSMQHDSAPLFNIIENSEDSYLRSEQAVIEGHPLHPGAKLRKGLNALQTFLYSSEFNQPIKLKIVLIHSKLSRTMSLSKDYDTTVHQLFPDLIKQLENEFTPKFNFNDYHIMIVHPWQLDDVLHSDYQAEVDKELIIEAKHTLDYYAGLSFRTLVPKYPAMSPHIKLSTNVHITGEIRTLSEQTTHNGPLMTRILNDILEKDVIFKSYASTIIDEVAGIHFYNEQDEADYQTERSEQLGTLFRKNIYQMIPQEVTPLIPSSLVATYPFNNESPIVTLIKRYQSAASLSDFESSAKSWVETYSKALLGLVIPLVTKYGIALEAHLQNAIATFRKDGLLDTMYIRDFEGLRIDKAQLNEMGYSTSHFHEKSRILTDSKTSVFNKAFYSTVQNHLGELILTISKASNDSNLERHMWYIVRDVLDNIFDQLVLSTHKSNQVNENRINEIKDTMFAPFIDYKCVTTMRLEDEAHHYTYIKVNNPLYRENNEGHHHHHH | soluble |
| MSLIQLRPCPKSYTRDQDKATTPAETVRRVRERLASLDISILAETRRVDVGRLGIPVFLSVCGADARAVMPTRKQMGKGASLEQAQASALMELMERYSFFTFWRDMPGMVEATWSEARNRFGDALIPVDEILHSVHDTLSPDDAVRALDLWRWKFFPATDITHGREVWLPLDWFKKLGEFNGSSAGNTEEESILQGSCELVERHVCCLIDRTQPELPTIDPASLDDPVLLELAAAFERNGIRLVLKDFSMGMPVPTVGAIAWDPATFPERSEIVYTAGTSSSPVKAAIRAVTEVAQLAGDFCTGACYEASGLSKYESLDDIAWLVAGPVVALDTLPSVETDDIRDELAALCDGLAATGHTLYSVSTMNPDVGVNTHYNIVPGFHFRERDRNAEGHHHHHH | not soluble |
| GMTYQALMFDIDGTLTNSQPAYTTVMREVLATYGKPFSPAQAQKTFPMAAEQAMTELGIAASEFDHFQAQYEDVMASHYDQIELYPGITSLFEQLPSELRLGIVTSQRRNELESGMRSYPFMMRMAVTISADDTPKRKPDPLPLLTALEKVNVAPQNALFIGDSVSDEQTAQAANVDFGLAVWGMDPNADHQKVAHRFQKPLDILELFK | soluble |
| MSLNVLIVDDEKLIRQGIINFFDWEKEGFQIVGEAANGKDALELISKNEPHIVMTDIVMPVMDGIDLVKRVKRDFPEVEIIVLSSFEEFEYVRSTFHSGVADYILKPRLNEKDLLKTLSEVRGKIPALAKVDSPSRAVPSISDQFEKILNGHAPLSQDDTGEKRFPKGPYRLAVITPIEEQDVHRRKQHLDEREQAITGIDVVCSIEKEGDAVLLLPLEGDVSSSMKQALDDFLKGRDAHALLVSSPFSSIYEAKEVYERDIPLLKQYSFYLPDTPLLIYDELPKTNEGVKTFDLNHFIELCKGRKFAIGFQYLLDYVEYMSTRYTQTSTECKAFLGNIIFNMIVLMGNLKYDVKELEREKYHYFATINAAKNVREATDCFYQFLEVTKQIISVYSNEGSSSIQKMLAYIEEHHSEPLSLSQLANYFHFNPSYLSAYFRQHHDEGFSEYLNKVRIRKAKEWLKSSTIPISEIYALVGYSDHSYFCKVFKKRTGMPPSRYRRENAEGHHHHHH | soluble |
| MNHDIDIKKVRLNCFRQSKVPGEFMLQMRIPGGIVDAKYLSQIQEIAETWGNGTFHMGMRQTFNIPGIKYENIQAVNKFIENYLQEVEVDRCNCDMKVDENGYPTIGARNVMACIGNSHCIKANVDTKDMANKIEKLVFPSHYHIKVSVAGCPNDCAKGHFQDFGVIGQARMEYHEERCIGCGACVRACEHHATRVLSLNDKGLVDKDPCCCVGCGECVLACPASAWTRKPEKFYRIVIGGRTGKQTPRMGKTFINFATEEVVLGIFANWQKFSAWALDYKPEYLHGGHLIDRAGYHKFKEIILDGVELNPEALVADNIFWAETEYRSNFNVKPIKMHKTIESNRPLRLEHHHHHH | not soluble |
| GPGSMSSSGPLAPPISWAQRPEYVLITIPLQDTTGVSVEIKDEGRELHFACSSPEHKQYACTIHFYGVISSEESQHVVRPRQIELKLRKKFSKSLEDANDDEVEWPRLTKEKSKYPNITIDWSKWKDENDDECAADDLGNFGLSGGDAMDGQYSEMLSQLMQAQGQKDAEESADLPPGTIPGFGSARGQEATHGASAETGDDDGDMPPLEEDT | soluble |
| MEKIIEVNSVSKTFKHKKAVNNVSFHVNKGEIVALLGPNGAGKTTTMSMMLGLKDPTEGTVSIFGKNPKHRDVRNSLGAMLQEVSVIDSITVEEAIELFRSYYTNPVAKETLLQLSNLELERKQRCEKLSGGQKRRLNFALALAGNPDLLFLDEPTVGMDITSRRTFWETIRKLVSEGKTIILTTHYLEEADALADRILLFVNGKIIADGTPDEMKATISRKTISFYSKESIPAKLLKELPNVTEVQAKEGHFTLTTEDTDATLKAIYQKNLPVTDVSVERGSLDEAFEQFVANQKEEIA | not soluble |
| MGSDKIHHHHHHMETLLKISGVDKSFPGVKALNNACLSVYAGRVMALMGENGAGKSTLMKVLTGIYSKDAGTIEYLNRSVNFNGPKASQEAGISIIHQELNLVGNLTIAENIFLGREFKTSWGAINWQKMHQEADKLLARLGVTHSSKQLCAELSIGEQQMVEIAKALSFESKVIIMDEPTDALTDTETEALFNVIRELKAENRGIVYISHRLKEIFQICDDVTVLRDGQFIGERVMAEITEDDLIEMMVGRRLDEQYPHLSQEKGECVLDVKHVSGSGIDDVSFKLHAGEIVGVSGLMGAGRTELGKLLYGALPKTAGKVRLKNQEIENRSPQDGLDNGIVYISEDRKGDGLVLGMSVKENMSLTSLDHFSQKGGIRHQAEKMAVDDFILMFNIKTPNRDQQVGLLSGGNQQKVAIARGLMTRPNVLILDEPTRGVDVGAKKEIYQLINEFKKEGLSILMISSDMPEVLGMSDRVLVMREGKISAEFSREEATQEKLLAAAIGK | not soluble |
| MSPIMARKPQIQAEQLAQKFVEKPEEQKDKQAVQKGQQLEGAKRWVADSELREQPVNSMQQVEHGPKAVILADDACWQTQRRVPAEIQLPQVGKISIPELSEKEIQRTIVAQPASYHKVQWNEFPEEPKYEIGAVPKTKTQDWVPVNNEQNELQRSIYKPARMSAVWPPPQDELVKDGHSPLVVKANEDTAWIQQDQNGVLKQAVWGKTSRINRVWPPPENESTLSDFGPQHMPVVQWPPPEAEAHEREQVEVLQKHIPTKKMERQWPPPPPQYQVVESSGEIETRYNPAEVDQQQQAVNSLRMGHIQA | not soluble |
| MLSHMVLTRQDIGRAASYYEDGADDYYAKDGDASEWQGKGAEELGLSGEVDSKRFRELLAGNIGEGHRIMRSATRQDSKERIGLDLTFSAPKSVSLQALVAGDAEIIKAHDRAVARTLEQAEARAQARQKIQGKTRIETTGNLVIGKFRHETSRERDPQLHTHAVILNMTKRSDGQWRALKNDEIVKATRYLGAVYNAELAHELQKLGYQLRYGKDGNFDLAHIDRQQIEGFSKRTEQIAEWYAARGLDPNSVSLEQKQAAKVLSRAKKTSVDREALRAEWQATAKELGIDFS | soluble |
| MPQGRGDGGVRMAAISLTKVRETAPALVDLYKTAGVSLTKHGMAGTRAAVYLVVDYSGSMKPYYKDGSVQALADRVLSLSAHLDDDGIVPVVFFSTDVDAVTEIALADHQGRIERIVAGLGHMGKTSYHLAMDAVIDHYLDSGARHPALVVFQTDGGPINRLAAERYLCKAAPLPLFWQFVGFGDPDSRQFEYLRKLDELAVPGKRVIDNAGFFHAGRDPRKVTDAELYDRLVGEFPQWLAAARAQGIARPSLEHHHHHH | not soluble |
| MGSDKIHHHHHHMATALYTANDFILISLPQNAQPVTAPGSKTDSWFNETLIGGRAFVSDFKIPEFKIGSLDTLIVESEELSKVDNQIGASIGKIIEILQGLNETSTNAYRTLPINNMPVPEYLENFQWQTRKFKLDKSIKDLITLISNESSQLDADVRATYANYNSAKTNLAAAERKKTGDLSVRSLHDIVKPEDFVLNSEHLTTVLVAVPKSLKSDFEKSYETLSKNVVPASASVIAEDAEYVLFNVHLFKKNVQEFTTAAREKKFIPREFNYSEELIDQLKKEHDSAASLEQSLRVQLVRLAKTAYVDVFINWFHIKALRVYVESVLRYGLPPHFNIKIIAVPPKNLSKCKSELIDAFGFLGGNAFMKDKKGKINKQDTSLHQYASLVDTEYEPFVMYIINL | not soluble |
| MGSSHHHHHHGGTGENLYFQGGSGRDREVVECLLGMEQWLRELNRPLASAGVGGSVDVGASSSLLSGFPPCMEGDALRSAYRSALSELRLLVLGVLNTMPWWRVVETVAGNPPAAQTGGARTASAGGGDNSSSEAGAARVAARHAGGWDRSAAALHVITRWHARLQIAFERVCLVLIDQSQQTVRGVLEVLLKPCQLRPPVRDGARRSIPSDSFIRVLNAVATKYSPVYVVELLEGCIADFMPRRRWAERRHHVACTAVLLYLALEGHTPAYHPQLGNSYSLQRAVRLLTSLRSRRADGRCALSGSPWLLPHATGSYSLTLP | not soluble |
| MTEAEDFAQLLQKLQNASPALPEGTSSTPTPSSSTGLLPNGKKTKGRVKIKMEYINNKLRRYTTFSKRKTGIMKKAFELSTLTGTQVMLLVASETGHVYTYATPKLQPMISSDTGKAMIQSCLNAPGGDGSDVQPSRTEFTFDSGNGGNGMRKRKMLSDVMSAESSNNSPSMPNFTPFLAPSMAPLFSTFGEDDYNNDESGDDSDSEEASSDIKEEYQGSPTMVKQETTEIDSVTASLQQRIKEAMRQAASNKQAIKKAKITPPSSNMNNAAFLNPFLLQGGANASNLLATAARKGDDAGSLTSNPFLSMGLNLQQLIESAAIASNE | not soluble |
| MGSDKIHHHHHHMFFEGVEQLIEEILKLRKQGLSFRKIAQALNTTVGKVHYRYKKHEELQHQKGQAKPAAKGEWQLPGSYPVTEITLLPQGPTTLYAFWDTSEQTRGLVSYQTDKDWEQLEKRLRLYDVTSLLFDGRRANRYVDIHLPEMTNNWLIEHVEPNCTYLIDLGVITPSGAFLPVVRSTPIETPRQRNDQYNFRKEDVLDWQYGLSEEPKWLEHFSTYSYYEKTK | not soluble |
| MGGMLRRLEVQNLAVIREAALDFAPGLNVLTGETGAGKSLLVDALALLLGGRAEGLIGPYGESLLVTAFFEGPPGEAVLSRRVGARSTPRVDGEVVTLKELQAEAERRLSLHAQHTALALLSPRRQREALDALLPEGLLAAYQEAYARREALLKEKAALEESLKARAEREDLLRYQIREIEEARVRPGEEEELLALAERLRHLETIRERLARALALLTEREAQDLLALAAKEVRAAARHDPALEALAEELSGAAEAVRAVARELEDHLEGLDLDPEELDRVEARLSLLERLKRKYGPTLADVLAHAQKAREELARMEGGEERLSEVERLLKALHEEVEARGQALRRAREEAARRLTEGMVRELPALGLAGARFAVVLEPLPEPGPQGLEAVAFRVAPNPNLPPAPLEALSGGELSRVALALALLTGTEAPTVVFDEVDAGVGGETAWRLAERLKRLAERRQVLVVTHLPQVAAVAQRHFRVTKTPEGVRVEPLAGEARVKEIARLLSGAYTQAALAHARELLEAQGAL | soluble |
| MGSDKIHHHHHHMPLRGGVTCRVPSGMWMVPPHCGVWVPGGMLHSNVATANARLFFLFIEPGAADLPNRCCTLSLSPLVRELIIELADQSEVATADSELMTTLLLSALSRMPVEHLHLPLTDEPRLARIASELADDPSDRSTMAQWARRVAMSENSLARLVQHQTGLTFGRWRQQLQLIIAIRSLASGATVQQVSGDLGYESVSAFITMFKKALGTSPSRYLRNFDR | not soluble |
| MASFRSTLALVNSAKLSLSTRTMASHPLAGLLGKLNHVAIATPDLKKSSEFYKGLGAKVSEAVPQPEHGVYTVFVELPNSKIELLHPFGEKSPIQAFLNKNKDGGMHHICIEVRDIHEAVSAVKTKGIRTLGEKPKIGAHGKEVMFLHPKDCGGVLIELEQE | not soluble |
